Drawing on PMC2749708, this text covers stoichiometry N and Kd for two substances.

Assay [1] has as its target EspFU three-repeat fragment. Briefly: AUC + other: binding assays.
Assay [2] deals with N-WASP GBD (amino acids 214-274) (UniProt O08816).
UniProt O08816, sequence (O08816 214-274): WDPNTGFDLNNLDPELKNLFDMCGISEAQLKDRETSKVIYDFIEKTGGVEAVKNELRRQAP

EspFU three-repeat fragment, sequence (C6UYI3 whole entry, the tested form may be a part): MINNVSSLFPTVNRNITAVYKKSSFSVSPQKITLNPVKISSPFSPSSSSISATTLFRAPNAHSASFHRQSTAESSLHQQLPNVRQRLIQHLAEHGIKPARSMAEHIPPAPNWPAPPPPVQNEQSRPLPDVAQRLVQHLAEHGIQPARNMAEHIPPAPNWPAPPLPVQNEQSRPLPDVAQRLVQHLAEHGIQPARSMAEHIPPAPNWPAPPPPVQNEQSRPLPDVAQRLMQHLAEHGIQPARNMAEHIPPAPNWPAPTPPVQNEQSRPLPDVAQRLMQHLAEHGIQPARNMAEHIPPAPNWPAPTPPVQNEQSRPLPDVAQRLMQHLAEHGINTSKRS

The term stoichiometry N denotes a count of units in the complex or per binding partner. Take N-WASP GBD (domain or fragment): the stoichiometry N in assay [1] was found to be 3.
One may read the Kd as a measure of binding affinity in units of concentration. A lower Kd goes with a tighter complex. In the case of one EspFU repeat (domain or fragment), the Kd in assay [2] stood at 0.018 µM.
